Target: Rac1 expressed as an N-terminal GST-fusion protein (Bos taurus (Bovine), UniProt P62998 1-189)
Experiment: GST pull-down, anti-FLAG Western blot
Description: Each cell lysate was subjected to a pull-down assay for detecting the binding of the hj03796 DH/PH, or the proto-Db1 DH/PH, to a Rho family protein. 300 μL of each cell lysate, 20 μL of Glutathione Sepharose 4B in the lysis buffer, and 100 μL of the lysis buffer were mixed. Each sample was prepared in such a way that the final concentration of MgCl₂ and dithiothreitol (DTT) was 1 mM. After reacting at 4° C. for 1 hour with rotating by rotator, each sample washed three times with 1 mL of cold lysis buffer (the final concentration of MgCl₂ was 1 mM) by centrifigation at 1,000 rpm for 15 seconds at 4° C. After washing and removing the supernatant, the Glutathione Sepharose 4B was added with 40 μL of a solution that was prepared by mixing SDS-PAGE sample buffer (the same composition as in Example 2) with an equal volume of the lysis buffer. After that, it was mixed with a mixer and subjected to a heat treatment at 100° C. for 5 minutes, to prepare a sample for electrophoresis. SDS-polyacrylamide gel electrophoresis was carried out, and then the gel was equilibrated for 5 minutes or more in a blotting buffer (the same composition as in Example 2). The proteins were transferred onto a PVDF membrane. After blotting, the PVDF membrane was subjected to blocking at 4° C. overnight, in TBS-T+BA (the same composition as in Example 2). […]

binding result: no binding
B1: proto-Db1 DH/PH (C-terminal FLAG-tagged protein) (other)
chain: MAVLKNHVLNELIQTERVYVRELYTVLLGYRAEMDNPEMFDLMPPLLRNKKDILFGNMAEIYEFHNDIFLSSLENCAHAPERVGPCFLERKDDFQMYAKYCQNKPRSETIWRKYSECAFFQECQRKLKHRLRLDSYLLKPVQRITKYQLLLKELLKYSKDCEGSALLKKALDAMLDLLKSVNDSMHQIAINGYIGNLNELGKMIMQGGFSVWIGHKKGATKMKDLARFKPMQRHLFLYEKAIVFCKRRVESGEGSDRYPSYSFKHCWKMDEVGITEYVKGDNRKFEIWYGEKEEVYIVQASNVDVKMTWLKEIRNILLKQ
notes: Positive control; also called DH/PH domain of proto Db1; deletion mutant of proto-Db1; not shown: C-terminal FLAG tag of vector pFLAG-CMV5a

Source: patent publication US20070196377A1 (Daiichi Sankyo, published 2007)
